{"source": "paper PMC7790415", "about": "“Loss of endocytosis-associated RabGEF1 causes aberrant morphogenesis and altered autophagy in photoreceptors leading to retinal degeneration” (PLoS Genetics, 2020)", "molecular_target": "T1, RabGEF1 (mouse (endogenous in retina), UniProt Q9JM13 1-491)", "T1 construct": "RabGEF1 (Rabex-5), mouse, endogenous protein of retinal extracts, immunoprecipitated with anti-RabGEF1 antibody; Endogenous protein; also called Rabex-5; Rabex5; source: endogenous, mouse retina extract (control retina)", "T1 sequence (Q9JM13 whole entry)": "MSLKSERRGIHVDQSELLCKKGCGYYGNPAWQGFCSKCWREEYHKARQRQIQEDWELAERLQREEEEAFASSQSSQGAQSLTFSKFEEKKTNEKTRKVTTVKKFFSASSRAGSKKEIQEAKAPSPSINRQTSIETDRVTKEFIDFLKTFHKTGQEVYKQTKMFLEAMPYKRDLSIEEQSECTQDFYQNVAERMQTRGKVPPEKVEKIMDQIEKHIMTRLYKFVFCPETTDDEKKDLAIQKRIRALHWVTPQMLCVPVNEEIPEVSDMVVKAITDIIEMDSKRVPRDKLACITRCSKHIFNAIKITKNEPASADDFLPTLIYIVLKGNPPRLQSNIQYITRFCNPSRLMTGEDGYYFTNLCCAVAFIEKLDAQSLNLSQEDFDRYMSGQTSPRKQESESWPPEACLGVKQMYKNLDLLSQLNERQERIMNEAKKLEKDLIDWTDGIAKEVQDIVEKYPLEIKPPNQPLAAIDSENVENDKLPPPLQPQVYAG", "assay": "affinity purification with mass spectrometry; anti-RabGEF1 and IgG immunoprecipitates from control and Rabgef1-/- mouse retinal lysates; trypsin digest, LC-MS on Orbitrap Lumos (n = 2)", "conditions": "partners not purified", "note": "Several values for one entry are separate records, joined by “and”; a condition that tells them apart may be missing. Equal entries are not always repeated.", "data": [{"binder": "Rabaptin-5 (natural protein, mouse (endogenous in retina), UniProt O35551 1-862, looked up, Rabaptin-5 (also known as Rabep1), mouse, endogenous protein of retinal extracts; Endogenous protein; also called Rabep1; source: endogenous, mouse retina extract (control retina)) MAQPGPAPQPDVSLQQRVAELEKINAEFLRAQQQLEQEFNQKRAKFKELYLAKEEDLKRQNAVLQAAQDDLGHLRTQLWEAQAEMENIKAIATVSENTKQEAIDEVKRQWREEVASLQAIMKETVRDYEHQFHLRLEQERAQWAQYRESAEREIADLRRRLSEGQEEENLENEMKKAQEDAEKLRSVVMPMEKEIAALKDKLTEAEDKIKELEASKVKELNHYLEAEKSCRTDLEMYVAVLNTQKSVLQEDAEKLRKELHEVCHLLEQERQQHNQLKHTWQKANDQFLESQRLLMRDMQRMEIVLTSEQLRQVEELKKKDQEEDEQQRVNKRKDNKKTDTEEEVKIPVVCALTQEESSTPLSNEEEHLDSTHGSVHSLDADLMLPSGDPFSKSDNDMFKDGLRRAQSTDSLGTSSSLQSKALGYNYKAKSAGNLDESDFGPLVGADSVSENFDTVSLGSLQMPSGFMLTKDQERAIKAMTPEQEETASLLSSVTQGMESAYVSPSGYRLVSETEWNLLQKEVHNAGNKLGRRCDMCSNYEKQLQGIQIQEAETRDQVKKLQLMLRQANDQLEKTMKEKQELEDFLKQSAEDSSHQISALVLRAQASEVLLEELQQSFSQAKRDVQEQMAVLMQSREQVSEELVRLQKDNDSLQGKHSLHVSLQLAEDFILPDTVEVLRELVLKYRENIVHVRTAADHMEEKLKAEILFLKEQIQAEQCLKENLEETLQLEIENCKEEIASISSLKAELERIKVEKGQLESTLREKSQQLESLQEMKVNLEEQLKKETAAKATVEQLMFEEKNKAQRLQTELDVSEQVQRDFVKLSQTLQVQLERIRQADSLERIRAILNDTKLTDINQLPET", "values": [{"measurement": "stoichiometry N", "value": "0.5 Rabaptin-5 per RabGEF1 (printed as RabGEF1:Rabaptin-5 2:1) and 2 Rabaptin-5 per RabGEF1 (printed as RabGEF1:Rabaptin-5 1:2)"}]}]}
